The record followed here is the supplement of paper PMC9732359.

± gives the uncertainty stated by the source.

This series can be described thus: protein stability index of a GFP-peptide fusion (yeast GPS) (PSI 1-4); higher = more stable; sorted into four equal gates, so the index is relative within each strain. An outline of the steps:
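Tiled yeast protein peptides of 17 residues were each joined downstream of GFP, on plasmids that also express Cherry. The pooled library was maintained in yeast, and mid-log cultures in leucine-free medium were sorted into four equal gates on the GFP/Cherry ratio. Plasmids from every gate were amplified by PCR and sequenced on Illumina, with barcodes linking reads to strains. The protein stability index of a peptide is its gate-number-weighted read frequency summed over the gates.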

Take NPYNTRSNKIKVVKTPG [RPL34A]: the protein stability index was determined as 1.98 ± 0.065 (doa10∆), 1.93 ± 0.045 (pdr5∆), 2.16 ± 0.08 (san1∆) and 2.15 ± 0.039 (ubr1∆).
NQFLKIKKKRKELFEKT [SMC1]: the protein stability index was 3.06 ± 0.15 (doa10∆), 3 ± 0.11 (pdr5∆), 2.96 ± 0.12 (san1∆) and 3.29 ± 0.16 (ubr1∆).
Take NQIPVTEHSKVTRFDEK [SRB6]: the protein stability index by setting is: (doa10∆) 2.28 ± 0.05; (pdr5∆) 3.02 ± 0.049; (san1∆) 2.86 ± 0.052; (ubr1∆) 2.87 ± 0.048.
Take NQLLAALVAYTPTDVIG [RRP6]: the protein stability index turned out to be 1.66 ± 0.045 (doa10∆), 1.39 ± 0.048 (pdr5∆), 1.25 ± 0.072 (san1∆) and 1.24 ± 0.032 (ubr1∆).
For NQNICTSVTRRSPVFAL [GRR1], the protein stability index is, setting by setting: (doa10∆) 1.43 ± 0.039; (pdr5∆) 1.6 ± 0.037; (san1∆) 1.5 ± 0.058; (ubr1∆) 1.74 ± 0.031.
With NQQQQNQQPQQQQQQQQ [SWI1], the protein stability index reads like this: (doa10∆) 3.06 ± 0.049; (pdr5∆) 2.93 ± 0.037; (san1∆) 2.88 ± 0.03; (ubr1∆) 2.83 ± 0.032.
As to NQSNLNGGNNTQQPGTN [SNF2], the protein stability index came out at 2.76 ± 0.073 (doa10∆), 3.1 ± 0.075 (pdr5∆), 3.08 ± 0.062 (san1∆) and 3.04 ± 0.056 (ubr1∆).
On the same counts, the results for NRAMEYDALLSINVHSN [RET1] are 2.58 ± 0.061, 2.41 ± 0.064, 2.29 ± 0.07 and 2.68 ± 0.045.
On the same counts, the results for NRLLPNLPEEERKQIHE [GRR1] are 1.26 ± 0.14, 1.41 ± 0.079, 1.71 ± 0.15 and 2.59 ± 0.13.
On the same counts, the results for NRSNDALIKFMEYHISN [FAS2] are 2.93 ± 0.074, 2.55 ± 0.078, 2.96 ± 0.084 and 2.45 ± 0.057.
Regarding NSAIIQNLRKELLIYKK [YIL149C/MLP2], the protein stability index runs as follows: (doa10∆) 3.14 ± 0.084; (pdr5∆) 2.6 ± 0.11; (san1∆) 3.23 ± 0.078; (ubr1∆) 3.14 ± 0.053.
On the same counts, the results for NSASSAPTPAAPGASVP [SWI1] are 3.04 ± 0.063, 3.16 ± 0.056, 3.21 ± 0.057 and 3.03 ± 0.055.
On the same counts, the results for NSDLEFNTFWDEKGNEI [ARP9] are 3.41 ± 0.08, 3.25 ± 0.12, 3.31 ± 0.12 and 3.34 ± 0.077.
Taken in the same sequence, the figures for NSISDFLGEQVNEPTKN [RPN1] were 3.32 ± 0.12, 3.15 ± 0.13, 3.34 ± 0.1 and 3.18 ± 0.091.
For the sequence NSISSQPASYHSVQETN [SSN2], the protein stability index was determined as 2.22 ± 0.049 (doa10∆), 2.54 ± 0.058 (pdr5∆), 2.88 ± 0.068 (san1∆) and 2.69 ± 0.052 (ubr1∆).
Taken in the same sequence, the figures for NSIYCPTQTVAELDLMS [RPN6] were 2.55 ± 0.071, 1.72 ± 0.071, 1.39 ± 0.11 and 1.53 ± 0.074.
On the same counts, the results for NSKPEKSSDSNDSNPSF [YLR335W/NUP2] are 2.47 ± 0.056, 2.62 ± 0.064, 2.25 ± 0.061 and 2.76 ± 0.036.
Taken in the same sequence, the figures for NSQERVQDLGSAISVTN [SIR2] were 2.45 ± 0.16, 3.11 ± 0.11, 3.01 ± 0.092 and 3.25 ± 0.19.
As to NSRNAIRKLVKNGTIVK [RPL19A], the protein stability index stood at 2.84 ± 0.07 (doa10∆), 2.9 ± 0.063 (pdr5∆), 2.89 ± 0.057 (san1∆) and 2.79 ± 0.066 (ubr1∆).
On the same counts, the results for NSSKYYINEKESSYTEV [SMC4] are 3.2 ± 0.22, 2.38 ± 0.1, 2.43 ± 0.12 and 1.89 ± 0.11.
Sequence NSSNYFGELQFAFLNAM [AAR2] displayed a protein stability index (doa10∆) of 2.86 ± 0.088, a protein stability index (pdr5∆) of 2.94 ± 0.071, a protein stability index (san1∆) of 2.69 ± 0.071 and a protein stability index (ubr1∆) of 2.89 ± 0.054.
On the same counts, the results for NSSRFSDPMLQRTATLC [YCS4] are 2.81 ± 0.12, 2.98 ± 0.093, 3.21 ± 0.093 and 3.02 ± 0.078.
As for NSSTSSTSNTPSPPNVI [YDL088C/ASM4], the protein stability index is, setting by setting: (doa10∆) 2.88 ± 0.05; (pdr5∆) 2.88 ± 0.045; (san1∆) 2.7 ± 0.052; (ubr1∆) 3.06 ± 0.043.
Taken in the same sequence, the figures for NSTGHSSNTNNNTNNNN [SWI1] were 3.48 ± 0.069, 3.26 ± 0.066, 3.17 ± 0.054 and 3.33 ± 0.063.
On the same counts, the results for NTAAALVSLLDENDSKK [YAR002W/NUP60] are 3.13 ± 0.097, 2.95 ± 0.12, 3.01 ± 0.087 and 3.01 ± 0.099.
On to NTAPGLGNTVSTQPSFA [YGR119C/NUP57], for which the protein stability index (doa10∆) worked out at 3.04 ± 0.11, the protein stability index (pdr5∆) turned out to be 2.96 ± 0.079, the protein stability index (san1∆) worked out at 2.9 ± 0.098 and the protein stability index (ubr1∆) amounted to 3.04 ± 0.056.
